The numbers were not newly measured in paper PMC7511354, which cites them from elsewhere.

For this series, the target named is CYP2C9 (Homo sapiens) (UniProt P11712).
UniProt P11712, sequence (P11712 whole entry): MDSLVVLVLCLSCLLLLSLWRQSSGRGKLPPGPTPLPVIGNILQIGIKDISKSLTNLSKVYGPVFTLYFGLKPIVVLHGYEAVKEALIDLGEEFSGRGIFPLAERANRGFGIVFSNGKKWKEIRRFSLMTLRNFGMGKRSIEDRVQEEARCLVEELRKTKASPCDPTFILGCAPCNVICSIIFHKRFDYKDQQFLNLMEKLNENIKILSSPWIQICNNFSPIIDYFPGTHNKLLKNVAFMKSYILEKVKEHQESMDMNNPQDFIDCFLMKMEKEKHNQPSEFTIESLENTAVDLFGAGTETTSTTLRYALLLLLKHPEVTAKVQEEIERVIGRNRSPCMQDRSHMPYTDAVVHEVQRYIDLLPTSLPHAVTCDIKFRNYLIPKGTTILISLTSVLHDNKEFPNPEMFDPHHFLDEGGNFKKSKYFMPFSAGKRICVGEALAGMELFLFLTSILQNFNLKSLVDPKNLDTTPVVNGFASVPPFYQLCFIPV

With cytochrome b5 (from UniProt P00167), the Kd was 794 nM.

A word on the Kd: it is the free concentration of one partner at which half of the binding sites on the other are occupied at equilibrium, for simple one-to-one binding.
